Source: US20070286806A1, “Methods and Compositions for Modulating a Steroid Receptor” (Mount Sinai Hospital, priority 2004, published 2007)

Legend:
[1] = target: myometrial progesterone receptors; settings: cited from earlier work
[2] = target: T1, PR DNA binding domain / PRE (Homo sapiens, UniProt P06401); experiment: Electrophoretic Mobility Shift Assay of PR binding to PRE; settings: nuclear extract of 293T cells transfected with Flag-PRB, increasing doses
T1 construct: PR 556-650 was also inserted downstream of T7 promoter of pcDNA3; made in house; host or cells: rabbit reticulocyte lysate (TNT, Promega); GST-PSF from E. coli
T1 sequence (P06401 1-933): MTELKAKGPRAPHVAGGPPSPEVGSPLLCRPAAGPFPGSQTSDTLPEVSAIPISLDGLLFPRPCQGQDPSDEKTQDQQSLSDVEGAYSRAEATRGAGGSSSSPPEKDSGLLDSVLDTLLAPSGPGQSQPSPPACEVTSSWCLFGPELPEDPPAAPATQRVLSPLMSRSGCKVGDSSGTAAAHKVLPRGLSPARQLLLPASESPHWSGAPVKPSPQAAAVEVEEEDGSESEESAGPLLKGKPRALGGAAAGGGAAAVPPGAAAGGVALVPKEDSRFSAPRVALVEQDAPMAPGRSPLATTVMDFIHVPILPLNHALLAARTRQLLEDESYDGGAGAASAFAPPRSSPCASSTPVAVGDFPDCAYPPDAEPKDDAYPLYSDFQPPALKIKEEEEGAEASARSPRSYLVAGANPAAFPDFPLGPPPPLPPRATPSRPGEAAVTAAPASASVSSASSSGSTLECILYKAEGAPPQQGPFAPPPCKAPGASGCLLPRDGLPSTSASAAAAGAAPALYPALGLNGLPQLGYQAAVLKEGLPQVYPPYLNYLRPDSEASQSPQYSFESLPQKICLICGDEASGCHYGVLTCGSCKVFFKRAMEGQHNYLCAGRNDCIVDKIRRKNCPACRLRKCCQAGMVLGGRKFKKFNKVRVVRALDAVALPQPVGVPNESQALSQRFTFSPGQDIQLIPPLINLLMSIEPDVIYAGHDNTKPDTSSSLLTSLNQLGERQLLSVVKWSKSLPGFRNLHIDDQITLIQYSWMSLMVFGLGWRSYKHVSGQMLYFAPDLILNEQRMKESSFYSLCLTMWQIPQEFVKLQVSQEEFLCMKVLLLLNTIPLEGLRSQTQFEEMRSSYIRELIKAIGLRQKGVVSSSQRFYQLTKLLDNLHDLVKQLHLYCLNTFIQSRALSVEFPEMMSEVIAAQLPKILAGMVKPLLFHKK
Method: (§1) FIG. 8. PSF interferes with binding of PR DNA binding domain to PRE. (A) Electrophoretic mobility shift assay was performed with ^32P-labeled PRE incubated with in vitro translated PRDBD (1, 2, 5μl in lane 3 to 5 and 2 μl in lane 6 to 11) and increasing amount of bacterially expressed GST (lane 6 to 8) or GST PSF (lane 9 to 11). TNT lysate (lane 2) was used as negative control. (B) PR-Nuclear extraction (1 and 2 μg) as described in the method was incubated with PRE oligo in a dose dependent manner (lane 2 and 3). Anti-PR antiserum (AB-52) was added to the incubation mixture (lane 4). Addition of increasing dose (1 and 2 μl) of GST or GST-PSF in the same reaction as lane 3 was shown in lane 6, 7 and 9, 10. In the control experiments (lane 5 and 8), GST or GST-PSF was incubated with PRE without adding PR-nuclear extract. All reactions contain 10 nM progesterone.
(§2) For immunoprecipitation of the endogenous PR and PSF, T47D cells cultured in 150 mm dishes were lysed in 800 μl NETN buffer containing 150 mM NaCl plus protease inhibitor cocktail. […] Gels were treated with Enhancer (NEN, Boston, US) dried and analyzed by autoradiography. • Cell culture and transient transfection: SHM cells and 293T cells were maintained in DMEM plus 5% FCS (Sigma) as described before (22). […] Luciferase activity was determined by using the luciferin reagent (Promega) according to manufacture's protocol. […]

[3] = target: T2, PR DNA binding domain / PRE (Homo sapiens, UniProt P06401); experiment: as above; settings: in vitro translated PRDBD, 32P-labeled PRE
T2 construct: PR 556-650 was also inserted downstream of T7 promoter of pcDNA3; made in house; host or cells: rabbit reticulocyte lysate (TNT, Promega); GST-PSF from E. coli
T2 sequence (P06401 556-650): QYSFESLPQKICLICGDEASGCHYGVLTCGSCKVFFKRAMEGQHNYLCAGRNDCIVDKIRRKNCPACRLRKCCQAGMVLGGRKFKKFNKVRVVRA
Method: as §1, §2

Molecule	Kd [1] [nM]	association of full-length PR to PRE [2]	association of PRDBD to PRE [3]
CC(=O)[C@H]1CC[C@H]2[C@@H]3CCC4=CC(=O)CC[C@]4(C)[C@H]3CC[C@]12C [progesterone]	1		
GST-PSF: bacterially expressed GST-PSF fusion protein (protein, left off: a dimerising Fc or GST, bacterially expressed GST-PSF fusion protein) MSRDRFRSRGGGGGGFHRRGGGGGRGGLHDFRSPPPGMGLNQNRGPMGPGPGQSGPKPPIPPPPPHQQQQQPPPQQPPPQQPPPHQPPPHPQPHQQQQPPPPPQDSSKPVVAQGPGPAPGVGSAPPASSSAPPATPPTSGAPPGSGPGPTPTPPPAVTSAPPGAPPPTPPSSGVPTTPPQAGGPPPPPAAVPGPGPGPKQGPGPGGPKGGKMPGGPKPGGGPGLSTPGGHPKPPHRGGGEPRGGRQHHPPYHQQHHQGPPPGGPGGRSEEKISDSEGFKANLSLLRRPGEKTYTQRCRLFVGNLPADITEDEFKRLFAKYGEPGEVFINKGKGFGFIKLESRALAEIAKAELDDTPMRGRQLRVRFATHAAALSVRNLSPYVSNELLEEAFSQFGPIERAVVIVDDRGRSTGKGIVEFASKPAARKAFERCSEGVFLLTTTPRPVIVEPLEQLDDEDGLPEKLAQKNPMYQKERETPPRFAQHGTFEYEYSQRWKSLDEMEKQQREQVEKNMKDAKDKLESEMEDAYHEHQANLLRQDLMRRQEELRRMEELHNQEMQKRKEMQLRQEEERRRREEEMMIRQREMEEQMRRQREESYSRMGYMDPRERDMRMGGGGAMNMGDPYGSGGQKFPPLGGGGGIGYEANPGVPPATMSGSMMGSDMRTERFGQGGAGPVGGQGPRGMGPGTPAGYGRGREEYEGPNKKPRF		decrease of association of PR to PRE	decreased association of PRDBD to PRE
